Substrate in this data set: CCC(=O)SCCNC(=O)CCNC(=O)[C@H](O)C(C)(C)COP(=O)(O)OP(=O)(O)OC[C@H]1O[C@@H](n2cnc3c(N)ncnc32)[C@H](O)[C@@H]1OP(=O)(O)O
The data set is described as follows: purified protein. The following applies: hydrolysis of propionyl-CoA to propionate; conditions only in supplement.

B1: PP_4975 (Pseudomonas putida KT2440) (protein)
chain: MNFHTRKWVKPEDLNPNGTLFGGSLLRWIDEEAAIYAIVQLGNQRVVTKYMSEINFVSASRQGDIIELGITATAFGRTSITLKCEVRNKITRKSILTVDKMVFVNLGEDGLPAAHGRTEIKYVQDQFPDSAVE
One may read the Km as the substrate concentration at which the rate is half of its maximum. A word on the kcat: it is the number of substrate molecules converted per active site and unit of time at saturation. A word on the kcat/Km: it is the turnover number divided by the Michaelis constant. For the protein B1, the Km stood at 144.13 µM, the kcat was 1300 s⁻¹ and the kcat/Km came out at 9.02e+06 M⁻¹ s⁻¹.

B2: HiYciA (Haemophilus influenzae Rd KW20) (protein)
chain: MSANFTDKNGRQSKGVLLLRTLAMPSDTNANGDIFGGWIMSQMDMGGAILAKEIAHGRVVTVAVESMNFIKPISVGDVVCCYGQCLKVGRSSIKIKVEVWVKKVASEPIGERYCVTDAVFTFVAVDNNGRSRTIPRENNQELEKALALISEQPL
With B2, the Km was determined as 26.84 µM, the kcat was found to be 490 s⁻¹ and the kcat/Km is 1.83e+07 M⁻¹ s⁻¹.

Source of the values: publication PMC8085926.
